Data taken from article PMC3713010, “Sox2 Transcriptionally Regulates Pqbp1, an Intellectual Disability-Microcephaly Causative Gene, in Neural Stem Progenitor Cells”.

T1: Oct6 DNA-binding domain (BD-Oct6) (Mus musculus (B6), UniProt P21952 317-416)
T1 sequence: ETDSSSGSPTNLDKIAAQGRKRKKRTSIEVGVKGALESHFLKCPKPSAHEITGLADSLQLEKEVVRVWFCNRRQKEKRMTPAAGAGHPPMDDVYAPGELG

T2: Brn2 DNA-binding domain (BD-Brn2) (Mus musculus (B6), UniProt P31360 336-435)
T2 sequence: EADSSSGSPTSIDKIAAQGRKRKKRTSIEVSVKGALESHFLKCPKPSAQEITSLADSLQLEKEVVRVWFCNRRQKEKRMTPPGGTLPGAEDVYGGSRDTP

B1: 46 (dsDNA)
DNA 1: GGGGGTTATTTCACAAAATCAACAAATCAAAAAGCCCCC
DNA 2: GGGGGCTTTTTGATTTGTTGATTTTGTGAAATAACCCCC
B2: 47 (dsDNA)
DNA 1: GGGGGCCACCATCTGTAATGTCCTTGGCACAATAAAACCAACCCCC
DNA 2: GGGGGTTGGTTTTATTGTGCCAAGGACATTACAGATGGTGGCCCCC
B3: 48 (dsDNA)
DNA 1: GGGGGATGAAATGGCTAAATCCTTTTTTTGTTGTTTGTTCCCCC
DNA 2: GGGGGAACAAACAACAAAAAAAGGATTTAGCCATTTCATCCCCC
B4: 49 (dsDNA)
DNA 1: GGGGGCTCTCTGATTTGTGAGTATTGACAGAGAATCCCCC
DNA 2: GGGGGATTCTCTGTCAATACTCACAAATCAGAGAGCCCCC
B5: 50 (dsDNA)
DNA 1: GGGGGTTTGTAAGTTTGTACCATTTGGCCTCAGCCCCCCC
DNA 2: GGGGGGGCTGAGGCCAAATGGTACAAACTTACAAACCCCC
B6: 51 (dsDNA)
DNA 1: GGGGGGTCCGGCTTTTGTTGATTTGCTTATCTATCCCCC
DNA 2: GGGGGATAGATAAGCAAATCAACAAAAGCCGGACCCCCC
B7: 52 (dsDNA)
DNA 1: GGGGGGGGGCAGCACAAATATTTCTGTGAATGTACCCCC
DNA 2: GGGGGTACATTCACAGAAATATTTGTGCTGCCCCCCCCC
B8: 53 (dsDNA)
DNA 1: GGGGGTGCTTGTGACAAATCTGTCAATTTCTGGTGGGGGCCCCCC
DNA 2: GGGGGGCCCCCACCAGAAATTGACAGATTTGTCACAAGCACCCCC
B9: 54 (dsDNA)
DNA 1: GGGGGAGGTGTTAAGTGTGGAGTCGTGAGAACAACAATCCAGATAGCCCCC
DNA 2: GGGGGCTATCTGGATTGTTGTTCTCACGACTCCACACTTAACACCTCCCCC
B10: 55 (dsDNA)
DNA 1: GGGGGGTAGATTATTTGTCCACCATTCACAAGCACTGAGTTCAATAACCCCCC
DNA 2: GGGGGGTTATTGAACTCAGTGCTTGTGAATGGTGGACAAATAATCTACCCCCC
B11: 56 (dsDNA)
DNA 1: GGGGGACACTTATACAATAATAGTATTTATTAATAGTATCCCCC
DNA 2: GGGGGATACTATTAATAAATACTATTATTGTATAAGTGTCCCCC
B12: 57 (dsDNA)
DNA 1: GGGGGCCTAAGATTCTTAATCTGACATTGTAGTCCCTACCCCC
DNA 2: GGGGGTAGGGACTACAATGTCAGATTAAGAATCTTAGGCCCCC
B13: 58 (dsDNA)
DNA 1: GGGGGTGAGATGGAGGAAATAAGTCTTATTGTTGTTCTCCCCCCC
DNA 2: GGGGGGGAGAACAACAATAAGACTTATTTCCTCCATCTCACCCCC
B14: 59 (dsDNA)
DNA 1: GGGGGAGCTTTTAACAATTTAATTTTGTCTCTACCTCCCCC
DNA 2: GGGGGAGGTAGAGACAAAATTAAATTGTTAAAAGCTCCCCC
B15: 60 (dsDNA)
DNA 1: GGGGGAATTTAATTTTGTCTCTACCTTTCACGCTTCTCCTTTGCATTTTCCCCCC
DNA 2: GGGGGGAAAATGCAAAGGAGAAGCGTGAAAGGTAGAGACAAAATTAAATTCCCCC
B16: 61 (dsDNA)
DNA 1: GGGGGTAAATTTTTCTAATCCTGACAAATCTCTTCACCCCC
DNA 2: GGGGGTGAAGAGATTTGTCAGGATTAGAAAAATTTACCCCC
B17: 62 (dsDNA)
DNA 1: GGGGGTTTAAACAATTGTCCCATTCATTATATTGCAACACCCCC
DNA 2: GGGGGTGTTGCAATATAATGAATGGGACAATTGTTTAAACCCCC
B18: 63 (dsDNA)
DNA 1: GGGGGAGAAATCCTCAATTTCCTTATCCACAAAATGGACATTTTCCTAGTACCTCCCCC
DNA 2: GGGGGAGGTACTAGGAAAATGTCCATTTTGTGGATAAGGAAATTGAGGATTTCTCCCCC
B19: 64 (dsDNA)
DNA 1: GGGGGATATATGCACAAACACTCATTTACATAAAATAACCCCC
DNA 2: GGGGGTTATTTTATGTAAATGAGTGTTTGTGCATATATCCCCC
B20: 65 (dsDNA)
DNA 1: GGGGGGTACTTGGTGATAATTTCATTGTCCACATGCCCCCC
DNA 2: GGGGGGCATGTGGACAATGAAATTATCACCAAGTACCCCCC
B21: 66 (dsDNA)
DNA 1: GGGGGGGAACTCCCTTAAATTTGGTTTGTTTATGTGTCCCCC
DNA 2: GGGGGACACATAAACAAACCAAATTTAAGGGAGTTCCCCCCC
B22: 67 (dsDNA)
DNA 1: GGGGGGCATATGCATTGTCTGTGTATTCTAAATGTATCCCCC
DNA 2: GGGGGATACATTTAGAATACACAGACAATGCATATGCCCCCC
B23: 68 (dsDNA)
DNA 1: GGGGGTTTGTTTGTTTGTTTAAAGGATTTATTTATTTATCCCCC
DNA 2: GGGGGATAAATAAATAAATCCTTTAAACAAACAAACAAACCCCC
B24: 69 (dsDNA)
DNA 1: GGGGGACAAGTGATTTGTCCTTATCACATAGCTAGGAAAAGGGAATCCCCC
DNA 2: GGGGGATTCCCTTTTCCTAGCTATGTGATAAGGACAAATCACTTGTCCCCC
B25: 72 (dsDNA)
DNA 1: GGGGGGTTTGTTTTTTAAGGAACTGTAATGAACAAATGTCAGGACCCCC
DNA 2: GGGGGTCCTGACATTTGTTCATTACAGTTCCTTAAAAAACAAACCCCCC

Biological target: Pax6 DNA-binding domain (BD-Pax6) (Mus musculus (B6), UniProt P63015 190-289)
Assay: EMSA; 10% glycerol, 20 mM HEPES pH 7.8, 45 mM KCl, 10 mM NaCl, 1 mM EDTA, 1 mM DTT, 0.2 ug/uL BSA, 0.1% NP-40, 50 ng poly-dIdC; 20 ng each GST protein; room temperature 30 min (heterodimers 4 C); 6% PAGE 0.25x TBE
Details: protein: recombinant; tags: GST (N-terminal, pGEX-6P-1); label: 32P-dCTP fill-in of the 5' (dG)5 overhangs of both strands (Methods; control probes are given with GGG)
Outline: (§1)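 GST-tagged transcription factor DNA-binding domains were made in E. coli BL21 and purified on glutathione-sepharose. They were tested against candidate cis-element oligonucleotides, annealed and labelled with 32P-dCTP. Each protein (20 ng) was mixed with 40,000–50,000 cpm probe and 50 ng poly-dIdC in HEPES/KCl glycerol buffer with BSA and detergent for 30 min at room temperature. Samples were resolved on 6% polyacrylamide in 0.25×TBE at 4°C. DNA binding was scored as band radioactivity in the expected shift region, measured on a BAS4000 imager.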

Sequence of Pax6 DNA-binding domain (BD-Pax6) (P63015 190-289): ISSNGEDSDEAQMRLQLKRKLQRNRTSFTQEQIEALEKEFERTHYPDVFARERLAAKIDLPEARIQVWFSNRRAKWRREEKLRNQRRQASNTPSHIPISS

Row | Binder | binding result
1 | B1 | binds
2 | B2 | no binding
3 | B3 | binds
4 | B4 | no binding
5 | B5 | no binding
6 | B6 | binds
7 | B7 | no binding
8 | B8 | no binding
9 | B9 | no binding
10 | B10 | no binding
11 | B11 | binds
12 | B12 | binds
13 | B13 | no binding
14 | B14 | binds
15 | B15 | binds
16 | B16 | binds
17 | B17 | binds
18 | B18 | binds
19 | B19 | binds
20 | B20 | binds
21 | B21 | binds
22 | B22 | no binding
23 | B23 | binds
24 | B24 | no binding
25 | B25 | binds

Biological target: T1, Oct6 DNA-binding domain (BD-Oct6)
Assay: as above
Details: protein: recombinant; tags: GST (N-terminal, pGEX-6P-1); label: 32P-dCTP fill-in of the 5' (dG)5 overhangs of both strands (Methods; control probes are given with GGG)
Outline: as §1

Row | Binder | binding result
26 | B1 | binds
27 | B2 | binds
28 | B3 | no binding
29 | B4 | no binding
30 | B5 | no binding
31 | B6 | no binding
32 | B7 | no binding
33 | B8 | no binding
34 | B9 | binds
35 | B10 | binds
36 | B11 | binds
37 | B12 | binds
38 | B13 | binds
39 | B14 | binds
40 | B15 | binds
41 | B16 | binds
42 | B17 | binds
43 | B18 | binds
44 | B19 | binds
45 | B20 | binds
46 | B21 | binds
47 | B22 | no binding
48 | B23 | binds
49 | B24 | binds
50 | B25 | binds

Biological target: T2, Brn2 DNA-binding domain (BD-Brn2)
Assay: as above
Details: protein: recombinant; tags: GST (N-terminal, pGEX-6P-1); label: 32P-dCTP fill-in of the 5' (dG)5 overhangs of both strands (Methods; control probes are given with GGG)
Outline: as §1

Row | Binder | binding result
51 | B1 | no binding
52 | B2 | no binding
53 | B3 | no binding
54 | B4 | no binding
55 | B5 | no binding
56 | B6 | no binding
57 | B7 | no binding
58 | B8 | no binding
59 | B9 | no binding
60 | B10 | no binding
61 | B11 | binds
62 | B12 | no binding
63 | B13 | no binding
64 | B14 | binds
65 | B15 | binds
66 | B16 | no binding
67 | B17 | binds
68 | B18 | no binding
69 | B19 | binds
70 | B20 | binds
71 | B21 | no binding
72 | B22 | no binding
73 | B23 | binds
74 | B24 | no binding
75 | B25 | binds
